Experimental data from patent US20180327499A1 (INSERM INSTITUT NATIONAL DE LA SANT ET DE LA RECHERCHE M …, published 2018).

Experiments:
[1] = target: T1, recombinant human NKG2D/Fc chimera (R&D Systems) (human, UniProt P26718 78-216); assay: ELISA on plate coated with Fc-NKG2D, dose-response, one site total binding fit
T1 construct: Bought reagent; The order Fc then NKG2D follows the printed name 'Fc-NKG2D'; also called Fc-NKG2D; NKGD2-Fc human; Fc part of the bought chimera not given
T1 sequence (looked up): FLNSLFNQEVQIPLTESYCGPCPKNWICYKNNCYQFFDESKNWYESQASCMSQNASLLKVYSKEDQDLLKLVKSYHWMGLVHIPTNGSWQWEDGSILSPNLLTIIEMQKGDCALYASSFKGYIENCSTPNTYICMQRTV

[2] = target: T2, NKG2D on HEK-293T cells co-transfected with NKG2D and DAP10 (UniProt P26718 1-216, limits assumed); assay: flow cytometry on NKG2D/DAP10-transfected HEK-293 cells, one site total binding fit
T2 construct: whole, on cells; DAP10 is co-expressed for surface expression; also called NKG2D-DAP10 co-transfected HEK293T cells
T2 sequence (looked up): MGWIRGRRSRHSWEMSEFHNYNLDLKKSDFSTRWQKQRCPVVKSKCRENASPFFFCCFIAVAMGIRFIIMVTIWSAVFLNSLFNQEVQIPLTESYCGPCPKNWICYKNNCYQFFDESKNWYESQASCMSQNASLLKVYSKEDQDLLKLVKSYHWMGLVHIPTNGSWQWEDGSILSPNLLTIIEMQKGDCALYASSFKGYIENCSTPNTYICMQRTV

EC50 [1]: 44 nM | Kd [2]: 625 nM
B1: sdAb ET2F9 (VHH)
VHH: QVQLVQSGGGLVQPGGSLRLSCAASGFTFDDYAMSWVRQAPGKGLEWVSAISWSGRTTYYAESMKGRFTTSRDNAKNTLYLQMNSLKPEDTALYYCARGDVAIRGNLDAWGQGTQVTVSS
notes: It carries a 6His tag (detected with anti-6His / anti-his antibodies); also called ET2F09; sdAb F9
